Article PMC8937303

Target: pFGFR2_(Cyto) (UniProt P21802)
Assay: MST

pFGFR2_(Cyto), sequence (P21802 400-821): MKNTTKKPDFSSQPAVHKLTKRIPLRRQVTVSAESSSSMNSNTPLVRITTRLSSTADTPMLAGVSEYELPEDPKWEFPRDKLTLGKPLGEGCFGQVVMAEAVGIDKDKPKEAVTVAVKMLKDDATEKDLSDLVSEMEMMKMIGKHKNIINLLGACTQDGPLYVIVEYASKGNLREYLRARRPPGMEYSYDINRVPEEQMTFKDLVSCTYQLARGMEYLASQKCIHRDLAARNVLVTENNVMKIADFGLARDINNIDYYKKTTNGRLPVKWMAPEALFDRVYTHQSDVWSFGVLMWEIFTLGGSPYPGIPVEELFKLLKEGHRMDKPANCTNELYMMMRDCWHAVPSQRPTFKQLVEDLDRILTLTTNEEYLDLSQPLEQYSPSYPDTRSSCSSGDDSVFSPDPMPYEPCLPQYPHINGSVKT

Kd [µM]	Substance
0.223	PLCγ1_(2SH2) (from UniProt P19174 545-791) (domain or fragment)
25.1	SHP2_(2SH2) (from UniProt Q06124 1-221) (domain or fragment)
